Data reported in patent US20250277029A1 (Amgen, published 2025).
Positions count from the first letter of the chain named.

What was measured:
[1] = target: T1, human cannabinoid receptor 1 (huCB1), full length, expressed on cells (human, UniProt P21554 1-472); assay: cell-based or functional assay
[2] = target: T1, human cannabinoid receptor 1 (huCB1), …; assay: cell-based or functional assay; remark: listed apart in the source
[3] = target: T1, human cannabinoid receptor 1 (huCB1), …; assay: cell-based or functional assay; remark: listed apart in the source
[4] = target: T1, human cannabinoid receptor 1 (huCB1), …; assay: cell-based or functional assay; remark: listed apart in the source
huCB1 nanodisc (CB1-ND) = target: T2, huCB1 nanodisc (CB1-ND) (human, UniProt P21554 99-414); assay: Octet BLI; antibody captured by anti-human Fc, CB1-nanodisc in solution, 1:1 model
T2 construct: The His-tagged CB1 is embedded in a POPC lipid nanodisc with MSP1D1 scaffold protein (molar ratio 480:8:1); also called huCB1-ND; #CB1-008
T2 sequence (P21554 99-414 limits assumed): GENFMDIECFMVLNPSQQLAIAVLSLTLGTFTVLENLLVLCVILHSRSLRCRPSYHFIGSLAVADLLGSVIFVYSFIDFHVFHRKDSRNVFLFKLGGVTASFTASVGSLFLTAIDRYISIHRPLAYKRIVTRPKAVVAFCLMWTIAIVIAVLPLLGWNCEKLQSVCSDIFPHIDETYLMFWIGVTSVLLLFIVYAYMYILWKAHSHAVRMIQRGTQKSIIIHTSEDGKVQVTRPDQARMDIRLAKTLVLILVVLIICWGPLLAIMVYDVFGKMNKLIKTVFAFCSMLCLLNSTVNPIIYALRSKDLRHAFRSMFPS

[5] = target: T1, human cannabinoid receptor 1 (huCB1), …; assay: KinExA on-cell ranking, HEK 293T cells expressing full length CB1; %IFF of LIBC523661 divided by %IFF of antibody
[6] = target: T1, human cannabinoid receptor 1 (huCB1), …; assay: cell-based or functional assay; remark: listed apart in the source
[7] = target: T1, human cannabinoid receptor 1 (huCB1), …; assay: cell-based or functional assay; remark: listed apart in the source
[8] = target: T1, human cannabinoid receptor 1 (huCB1), …; assay: cell-based or functional assay; remark: listed apart in the source
[9] = target: T3, human cannabinoid receptor type 2 (CB2) (human, UniProt P34972 1-360); assay: fold over mock (Table 14)
T3 construct: also called huCB2; full length hu CB2
T3 sequence (P34972 whole entry): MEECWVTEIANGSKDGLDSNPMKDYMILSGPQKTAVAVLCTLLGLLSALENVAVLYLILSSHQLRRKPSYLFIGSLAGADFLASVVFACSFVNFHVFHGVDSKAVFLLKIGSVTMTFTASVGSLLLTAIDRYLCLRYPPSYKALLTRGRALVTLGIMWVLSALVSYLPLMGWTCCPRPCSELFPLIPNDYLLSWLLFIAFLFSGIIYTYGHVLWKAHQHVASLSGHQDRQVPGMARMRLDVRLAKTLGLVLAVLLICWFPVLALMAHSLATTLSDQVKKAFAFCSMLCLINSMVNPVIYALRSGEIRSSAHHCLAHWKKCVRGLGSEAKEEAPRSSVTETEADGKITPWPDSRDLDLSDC

mouse CB1 [10] = target: T4, mouse CB1 (mouse, UniProt P47746 1-473); assay: fold over mock (Table 14)
T4 construct: also called muCB1; murine CB1
T4 sequence (P47746 whole entry): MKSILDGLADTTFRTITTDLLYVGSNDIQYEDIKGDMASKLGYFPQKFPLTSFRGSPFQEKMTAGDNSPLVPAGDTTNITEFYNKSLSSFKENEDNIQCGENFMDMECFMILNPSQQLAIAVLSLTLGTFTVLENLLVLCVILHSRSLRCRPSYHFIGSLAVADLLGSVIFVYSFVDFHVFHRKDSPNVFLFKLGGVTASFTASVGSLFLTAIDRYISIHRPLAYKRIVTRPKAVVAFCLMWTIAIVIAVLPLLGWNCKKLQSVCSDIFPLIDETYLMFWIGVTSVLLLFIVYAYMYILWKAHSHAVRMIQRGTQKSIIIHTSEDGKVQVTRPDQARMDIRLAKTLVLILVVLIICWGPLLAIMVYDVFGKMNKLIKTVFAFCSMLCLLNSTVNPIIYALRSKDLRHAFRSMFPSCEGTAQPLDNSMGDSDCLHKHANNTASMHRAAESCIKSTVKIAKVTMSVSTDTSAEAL

[11] = target: T5, GFP-fused huCB1-SMALP (human CB1 in styrene maleic acid lipoparticles) (human, UniProt P21554 1-472); assay: flow cytometry, yeast-displayed IgG, GFP MFI
T5 construct: Prepared as in Luna V. et al. 2018; also called huCB1-GFP-SMALP; wtCB1-SMALP; not shown: GFP fusion
T5 sequence (P21554 whole entry, the tested form may be a part): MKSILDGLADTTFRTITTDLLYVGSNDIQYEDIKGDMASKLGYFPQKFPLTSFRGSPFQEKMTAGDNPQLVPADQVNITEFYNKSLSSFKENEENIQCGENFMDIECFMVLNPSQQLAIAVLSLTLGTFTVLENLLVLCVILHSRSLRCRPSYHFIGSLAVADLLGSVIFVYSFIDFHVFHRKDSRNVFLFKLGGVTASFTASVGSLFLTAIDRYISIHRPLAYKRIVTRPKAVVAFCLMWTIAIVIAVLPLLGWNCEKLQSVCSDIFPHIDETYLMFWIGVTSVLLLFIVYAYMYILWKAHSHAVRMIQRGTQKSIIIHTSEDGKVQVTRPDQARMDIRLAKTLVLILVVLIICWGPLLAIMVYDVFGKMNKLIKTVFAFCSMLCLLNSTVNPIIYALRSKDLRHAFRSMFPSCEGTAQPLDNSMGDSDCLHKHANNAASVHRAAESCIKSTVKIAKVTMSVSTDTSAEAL

[12] = target: T3, human cannabinoid receptor type 2 (CB2); assay: binding to huCB2, fold over mock (method not described)
mouse CB1 [13] = target: T4, mouse CB1; assay: binding to muCB1, fold over mock (method not described)
[14] = target: T6, His-tagged huCB1-ND (human CB1 in nanodisc) (human); assay: flow cytometry, yeast-displayed IgG, binding/display ratio
T6 construct: CB1 construct of Cell 167(3) (2016) 750-762 expressed in Sf9 cells; POPC:MSP1D1:CB1 480:8:1; also called CB1-nanodisc; huCB1-Nanodisc; not shown: histidine purification tag
T6 sequence (P21554 99-414): as the sequence (P21554 99-414 limits assumed) above

[15] = target: T6, His-tagged huCB1-ND (human CB1 in …); assay: flow cytometry, yeast-displayed IgG, huCB1-ND over empty-ND
[16] = target: T6, His-tagged huCB1-ND (human CB1 in …); assay: flow cytometry on IgG-displaying yeast, 0.2 nM His-tagged huCB1 nanodisc, APC anti-His (y) vs PE anti-huFc display (x)
[17] = target: T5, GFP-fused huCB1-SMALP (human CB1 in …); assay: flow cytometry on IgG-displaying yeast, 100 nM GFP-fused huCB1-SMALP, GFP in BB515-A (y) vs AlexaFluor647 anti-huFab display in APC-A (x)
[18] = target: T3, human cannabinoid receptor type 2 (CB2); assay: FACS on transfected HEK293T cells
mouse CB1 [19] = target: T4, mouse CB1; assay: FACS on transfected HEK293T cells
[20] = target: T1, human cannabinoid receptor 1 (huCB1), …; assay: FACS on transiently transfected HEK293T cells
[21] = target: T7, truncated human CB1 (devoid of the 1-98 aa N-term), expressed on cells (human, UniProt P21554 99-472); assay: FACS on transiently transfected HEK293T cells
T7 construct: Transiently expressed on HEK293T cells; also called Truncated hu CB1; N-term truncated human CB1
T7 sequence (P21554 99-472): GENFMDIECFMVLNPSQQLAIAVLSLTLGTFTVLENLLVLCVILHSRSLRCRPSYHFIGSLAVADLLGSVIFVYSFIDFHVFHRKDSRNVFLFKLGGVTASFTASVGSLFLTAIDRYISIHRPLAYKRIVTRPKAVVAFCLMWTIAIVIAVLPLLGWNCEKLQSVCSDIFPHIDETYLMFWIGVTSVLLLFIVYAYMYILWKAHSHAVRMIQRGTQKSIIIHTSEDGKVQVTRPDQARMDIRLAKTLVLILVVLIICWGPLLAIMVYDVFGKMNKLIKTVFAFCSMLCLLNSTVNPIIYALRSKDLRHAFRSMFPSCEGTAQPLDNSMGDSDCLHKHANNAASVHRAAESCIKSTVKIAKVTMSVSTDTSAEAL

[22] = target: T8, human cannabinoid receptor type 2 (CB2), full length, expressed on cells (human, UniProt P34972 1-360); assay: FACS on transiently transfected HEK293T cells
T8 construct: Transiently expressed on HEK293T cells; also called Full length hu CB2; huCB2
T8 sequence (P34972 whole entry): as the sequence (P34972 whole entry) above

[23] = target: T9, mouse CB1, full length, expressed on cells (mouse, UniProt P47746 1-473); assay: FACS on transiently transfected HEK293T cells
T9 construct: Transiently expressed on HEK293T cells; also called Full length mu CB1; muCB1
T9 sequence (P47746 whole entry): as the sequence (P47746 whole entry) above

T1 sequence (P21554 whole entry): as the sequence (P21554 whole entry, the tested form may be a part) above

B1: LIBC527814-1 (antibody, V domains shown)
VH: QVQLQESGPGLVKPSQTLSLTCTVSGGSIRRGGDYWGWIRQHPGKGLEWIGHVYQTGSTKYNPSFKDRATISVNTYKNQFSLKLSSVTAADTAVYYCARNYDTLTGYSYYYYGMDVWGQGTTVTVSS
VL: DIQMTQSPSTLSASVGDRVTITCRASQSISNYLNWYQQKPGKAPKLLIYAASSLHSGVPSRFSGSGSGTDFTLTISSLQPEDFASYYCQQYQSYPLTFGQGTKVEIKR
notes: Expressed as IgG1 SEFL2 mAb
Mean IC50 (nM), cAMP antagonist assay [1]: 2.97 nM
Mean IC50, -fold vs Rimo [1]: 0.99 fold vs Rimonabant
n = 1 IC50 (nM), cAMP antagonist assay [1]: 4.72 nM
n = 1 IC50, -fold vs Rimo [1]: 1.12 fold vs Rimonabant
n = 2 IC50 (nM), cAMP antagonist assay [1]: 1.22 nM
n = 2 IC50, -fold vs Rimo [1]: 0.68 fold vs Rimonabant
Mean IC50 (nM, n = 3), cAMP antagonist assay [2]: 2.07 nM
IC50 (nM), antagonist assay [3]: 3.8 nM
IC50, nM (CP agonist) [4]: 2.1 nM
Kd (huCB1 nanodisc (CB1-ND)): 35 nM
koff (huCB1 nanodisc (CB1-ND)): 0.00198 s⁻¹
kon (huCB1 nanodisc (CB1-ND)): 56600 M⁻¹ s⁻¹
Relative binding (KinExA, on cell; vs LIBC523661 mAb) [5]: 1.9 ratio

B2: LIBC528116-1 (antibody, V domains shown)
VH: B1 VH with G37A, Q55Y, K60N, S64R, L104V
VL: B1 VL with M4L
notes: Expressed as IgG1 SEFL2 mAb; also called 37940-4
Mean IC50 (nM), cAMP antagonist assay [1]: 2.4 nM
n = 1 IC50 (nM), cAMP antagonist assay [1]: 3.93 nM
n = 2 IC50 (nM), cAMP antagonist assay [1]: 0.88 nM
Mean IC50 (nM, n = 3), cAMP antagonist assay [2]: 1.77 nM
Antagonist assay IC50 (nM), 2-AG [6]: 7.2 nM
Antagonist assay IC50 (nM), Anandamide [6]: 17 nM
Antagonist assay IC50 (nM), CP 55,940 [6]: 1.8 nM
Inverse agonist assay IC50 [6]: 31.7 nM
IC50, nM (CP agonist) [4]: 1.8 nM
IC50 [7]: 2.7 nM
Kd (huCB1 nanodisc (CB1-ND)): 29 nM

B3: 10D10 (antibody, V domains shown)
VH: QVQLQESGPGLVKPSQTLSLTCTVSGGSIRRGGDYWSWIRQHPGKGLEWIGYIYYSGSTNYNPSLKSRATISVDTSKNQFSLKLSSVTAADTAVYYCARDYDILTGYSYYYYGMDVWGQGTTVTVSS
VL: not shown
notes: Parent antibody from XenoMouse; also called 10D10 antibody
Mean IC50 (nM), cAMP antagonist assay [1]: 80.8 nM
n = 1 IC50 (nM), cAMP antagonist assay [1]: 118 nM
n = 2 IC50 (nM), cAMP antagonist assay [1]: 43.4 nM
Mean IC50 (nM, n = 3), cAMP antagonist assay [2]: 120 nM
Antagonist assay IC50 (nM), 2-AG [6]: 178 nM
Antagonist assay IC50 (nM), Anandamide [6]: 6040 nM
Antagonist assay IC50 (nM), CP 55,940 [6]: 120 nM
Inverse agonist assay IC50 [6]: 295 nM
IC50 (nM), antagonist assay [3]: 144 nM
IC50, nM (CP agonist) [4]: 121 nM
IC50, nM (TR-FRET cAMP assay, CP55,940 and Forskolin) [8]: 120 nM
Kd (huCB1 nanodisc (CB1-ND)): 755 nM

B4: LIBC524049-1 (antibody, IgG1, V domains shown)
VH: B3 VH with Y52H, S56T, N60A, D74N, S76Y
VL: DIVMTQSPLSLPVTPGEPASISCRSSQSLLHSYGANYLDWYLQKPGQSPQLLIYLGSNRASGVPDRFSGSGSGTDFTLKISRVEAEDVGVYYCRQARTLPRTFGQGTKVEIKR
binding result [9]: no binding
binding result (mouse CB1 [10]): no binding
100 nM huCB1-SMALP binding (normalized to 10D10) [11]: 5.51 fold
Fold over mock [12]: 1 fold
Fold over mock (mouse CB1 [13]): 0.8 fold
relative binding to 0.2 nM huCB1-ND (relative to 10D10N35Y) [14]: 5.01 fold
specific huCB1 binding (CB1 ND/Empty ND ratio) [15]: 9.5 ratio
% of events in the upper right quadrant (display-positive, binding-positive) [16]: 39.9%
% of events in the upper right quadrant (display-positive, binding-positive) [17]: 24.8%

B5: LIBC529593-1 (antibody, V domains shown)
VH: B3 VH with Y52H, K66R, A69V, T70R, M114L
VL: not shown
binding result [18]: no binding
binding result (mouse CB1 [19]): no binding

B6: LIBC529593-1 (antibody, V domains shown)
VH: B3 VH with Y52H, K66R, A69V, T70R, M114L
VL: not shown
notes: Fully human antibody from the new XenoMouse campaign
IC50, nM (TR-FRET cAMP assay, CP55,940 and Forskolin) [8]: 6.4 nM
MFI ratio (target- vs mock-transfected cells) [20]: 422 ratio
MFI ratio (target- vs mock-transfected cells) [21]: 495 ratio
MFI ratio (target- vs mock-transfected cells) [22]: 1.1 ratio
MFI ratio (target- vs mock-transfected cells) [23]: 1 ratio

B7: LIBC523969-1 (antibody, V domains shown)
VH: B1 VH with G37S, V53I, S58Q, S64N, F65L, D67G, N100D, T103I
VL: DIVMTQSPLSLPVTPGEPASISCRSSQSLLSSTGANYLDWYLQKPGQSPQLLIYQGSNRASGVPDRFSGSGSGTDFTLKISRVEAEDVGVYYCRQAVGLPRTFGQGTKVEIKR
100 nM huCB1-SMALP binding (normalized to 10D10) [11]: 5.69 fold
relative binding to 0.2 nM huCB1-ND (relative to 10D10N35Y) [14]: 4.53 fold
specific huCB1 binding (CB1 ND/Empty ND ratio) [15]: 12.8 ratio
% of events in the upper right quadrant (display-positive, binding-positive) [16]: 46.8%
% of events in the upper right quadrant (display-positive, binding-positive) [17]: 27.2%

B8: 10D10 (antibody, V domains shown)
VH: B3 VH
VL: not shown
notes: also called 10D10 antibody; 10D10 parent
binding result [9]: no binding
binding result (mouse CB1 [10]): no binding
% of events in the upper right quadrant (display-positive, binding-positive) [16]: 0.431%
% of events in the upper right quadrant (display-positive, binding-positive) [17]: 1.48%

B9: LIBC560340-1 (antibody, V domains shown)
VH: QVQLQESGPGLVKPSQTLSLICIVSGGSIRRGGDYWNWIRQHPGKGLEWIGHIYYSGSKNYNPSLKSRVTISVDTSKNQFSLKLSSVTAADTAVYYCARGYDSSGYSYYYYGMDVWGQGTTVTVSS
VL: B7 VL with S31Y, T33N, A35H, Y37F, Q55L, R94M, V97L, G98Q, L99T, Q105G
notes: as for B6
IC50, nM (TR-FRET cAMP assay, CP55,940 and Forskolin) [8]: 10.2 nM
MFI ratio (target- vs mock-transfected cells) [20]: 578 ratio
MFI ratio (target- vs mock-transfected cells) [21]: 705 ratio
MFI ratio (target- vs mock-transfected cells) [22]: 1 ratio
MFI ratio (target- vs mock-transfected cells) [23]: 1 ratio

B10: LIBC560340-1 (antibody, V domains shown)
VH: B9 VH
VL: B7 VL with S31Y, T33N, A35H, Y37F, Q55L, R94M, V97L, G98Q, L99T, Q105G
binding result [18]: no binding
binding result (mouse CB1 [19]): no binding

B11: LIBC560657-1 (antibody, V domains shown)
VH: B9 VH with Q5R, S56T, S58T, N60Y
VL: DIVMTQSPLSLPVTPGEPASISCRSSQSLLYSNGHNYLDWYLQKPGQSPQLLIYLGSNRAPGVPDRFSGSGSGTDFTLKISRVEAEDVGVYFCMQALQTPRTFGGGTKVEIKR
binding result [18]: no binding
binding result (mouse CB1 [19]): no binding

B12: LIBC560657-1 (antibody, V domains shown)
VH: B9 VH with Q5R, S56T, S58T, N60Y
VL: B11 VL
notes: as for B6
IC50, nM (TR-FRET cAMP assay, CP55,940 and Forskolin) [8]: 7.5 nM
MFI ratio (target- vs mock-transfected cells) [20]: 440 ratio
MFI ratio (target- vs mock-transfected cells) [21]: 444 ratio
MFI ratio (target- vs mock-transfected cells) [22]: 1 ratio
MFI ratio (target- vs mock-transfected cells) [23]: 1 ratio
